The text below walks through data of US20260158160A1 (MACFARLANE BURNET INSTITUTE FOR MEDICAL RESEARCH AND PUBLIC …, published 2026).

“And” between values parts separate entries of the source, which are not always exact repeats. Equal values may be shown once. Read-outs that look alike come from different tables or passages of the source.

As usually defined, the EC50 is the concentration needed to bring the measured effect to its halfway point.

The target in test [1] is SARS-CoV-2 spike protein on virus (CoV/Australia/VIC01/2020) (SARS-CoV-2, UniProt P0DTC2 14-1273). Nature of the test: cell-based or functional assay.
Test [2] concerns the target T1, SARS-CoV-2 RBD-Ig (SARS-CoV-2; mouse, UniProt P0DTC2 319-541).
For test [3], the target named is SARS-CoV-2 spike protein expressed on Ramos-S cells (SARS-CoV-2, UniProt P0DTC2 14-1273).
Test [4] deals with T1, SARS-CoV-2 RBD-Ig. Nature of the test: ELISA: ACE2-Fc titrated on immobilised RBD-Ig (A450), curve fit. (In general: In an ELISA, binding on a coated surface is turned into a signal by an enzyme label.)

B1: EflACE2-Fc-H429Y (Fc fusion)
chain: ETGSTIEEQAKYFLDKFNHEAEDLFYQSSLASWNYNTNITEENVQNMNNAGDKWSAFLKEQSTTAQMYPLQEIQNLTVKLQLQALQQNGSSVLSEDKSKRLNTILNTMSTIYSTGKVCNPDNPQECLLLEPGLNEIMANSLDYNERLWAWESWRSEVGKQLRPLYEEYVVLKNEMARANHYEDYGDYWRGDYEVNGVDGYDYSRGQLIEDVEHTFEEIKPLYEHLHAYVRAKLMNAYPSYISPIGCLPAHLLGDMWGRFWTNLYSLTVPFGQKPNIDVTDAMVDQAWDAQRIFKEAEKFFVSVGLPNMTQGFWEYSMLTDPGNVQKAVCHPTAWDLGKGDFRILMCTKVTMDDFLTAHHEMGHIQYDMAYAAQPFLLRNGANEGFHEAVGEIMSLSAATPKHLKSIGLLSPDFQEDNETEINFLLKQALTIVGTLPFTYMLEKWRWMVFKGEIPKDQWMKKWWEMKREIVGVVEPVPHDETYCDPASLFHVSNDYSFIRYYTRTLYQFQFQEALCQAAKHEGPLHKCDISNSTEAGQKLFNMLRLGKSEPWTLALENVVGAKNMNVRPLLNYFEPLFTWLKDQNKNSFVGWSTDWSPYADQSIKVRISLKSALGDRAYEWNDNEMYLFRSSVAYAMRQYFLKVKNQMILFGEEDVRVANLKPRISFNFFVTAPKNVSDIIPRTEVEKAIRMSRSRINDAFRLNDNSLEFLGIQPTLGPPNQPPVSGGGGSTHTCPPCPAPELLGGPSVFLFPPKPKDTLMISRTPEVTCVVVDVSHEDPEVKFNWYVDGVEVHNAKTKPREEQYNSTYRVVSVLTVLHQDWLNGKEYKCKVSNKALPAPIEKTISKAKGQPREPQVYTLPPSREEMTKNQVSLTCLVKGFYPSDIAVEWESNGQPENNYKTTPPVLDSDGSFFLYSKLTVDKSRWQQGNVFSCSVMYEALHNHYTQKSLSLSPGK
notes: also called EflACE2-Fc-H429Yoli; Yoli
Turning to B1, in test [1], the “fold of neutralisation activity over unfused trACE2” value is over 600 fold. Also, the concentration for a half-maximal effect (EC50) with SARS-CoV-2 RBD-Ig [2] is 380 pM and 600 pM.

B2: EflACE2-Fc-H429F (Fc fusion)
chain: ETGSTIEEQAKYFLDKFNHEAEDLFYQSSLASWNYNTNITEENVQNMNNAGDKWSAFLKEQSTTAQMYPLQEIQNLTVKLQLQALQQNGSSVLSEDKSKRLNTILNTMSTIYSTGKVCNPDNPQECLLLEPGLNEIMANSLDYNERLWAWESWRSEVGKQLRPLYEEYVVLKNEMARANHYEDYGDYWRGDYEVNGVDGYDYSRGQLIEDVEHTFEEIKPLYEHLHAYVRAKLMNAYPSYISPIGCLPAHLLGDMWGRFWTNLYSLTVPFGQKPNIDVTDAMVDQAWDAQRIFKEAEKFFVSVGLPNMTQGFWEYSMLTDPGNVQKAVCHPTAWDLGKGDFRILMCTKVTMDDFLTAHHEMGHIQYDMAYAAQPFLLRNGANEGFHEAVGEIMSLSAATPKHLKSIGLLSPDFQEDNETEINFLLKQALTIVGTLPFTYMLEKWRWMVFKGEIPKDQWMKKWWEMKREIVGVVEPVPHDETYCDPASLFHVSNDYSFIRYYTRTLYQFQFQEALCQAAKHEGPLHKCDISNSTEAGQKLFNMLRLGKSEPWTLALENVVGAKNMNVRPLLNYFEPLFTWLKDQNKNSFVGWSTDWSPYADQSIKVRISLKSALGDRAYEWNDNEMYLFRSSVAYAMRQYFLKVKNQMILFGEEDVRVANLKPRISFNFFVTAPKNVSDIIPRTEVEKAIRMSRSRINDAFRLNDNSLEFLGIQPTLGPPNQPPVSGGGGSTHTCPPCPAPELLGGPSVFLFPPKPKDTLMISRTPEVTCVVVDVSHEDPEVKFNWYVDGVEVHNAKTKPREEQYNSTYRVVSVLTVLHQDWLNGKEYKCKVSNKALPAPIEKTISKAKGQPREPQVYTLPPSREEMTKNQVSLTCLVKGFYPSDIAVEWESNGQPENNYKTTPPVLDSDGSFFLYSKLTVDKSRWQQGNVFSCSVMFEALHNHYTQKSLSLSPGK
notes: also called EflACE2-Fc F
Turning to B2, the figures for the half-maximal effective concentration (EC50) (in test [3]; with SARS-CoV-2 RBD-Ig [4]) were 2100 pM and 210 pM, respectively.
